Measurements: patent US8344120B2, “Nucleic acid molecules encoding rage fusion proteins” (TransTech Pharma, Inc., priority 2006, dated 2013)
“And” between values parts separate entries of the source, which are not always exact repeats. Equal entries are not always repeated.

Key:
[1] = tested on: HMGB1-induced TNF-α production in THP-1 cells; assay: HMGB1-induced TNF-α production in THP-1 cells; assay type: cell-based; design: dose or concentration left out as unconfirmed; settings: 24 hours
Procedure: (§1) HMGB1 has been reported to be a ligand for RAGE and the Toll-Like Receptors 2 and 4 (Park et al., J Biol Chem., 2004; 279(9):7370-7). All three of these receptors (RAGE, Toll-like receptor 2, and Toll-like receptor 4) are expressed on THP-1 cells (Parker, et al., J Immunol., 2004,172(8):4977-86.).
In this experiment, THP-1 cells were stimulated to produce TNF-α by HMGB1 ([…]) in the presence or absence of either TTP4000 or anti-RAGE antibodies. Under the conditions used in the assay, HMGB1 should be the only inducer of TNF-α.
as §1, with “HMGB 1” for “HMGB1”, “J.” for “J”
In this experiment, THP-1 cells were stimulated to produce TNF-α by HMGB1 ([…]) in the presence or absence of either TTP4000 or anti-RAGE antibodies. Under the conditions used in the assay, HMGB1 should be the only inducer of TNF-α. The amount of TNF-αsecreted by the THP-1 cells was measured 24 hours after the addition of the proteins to the cell culture using a commercially available ELISA kit for TNF-α (R&D Systems, Minneapolis, Minn.).

Fc receptor = Fc receptor activation: TNF-α secretion from THP-1 cells; assay type: cell-based
From the text: Fc stimulation results in TNF-α secretion.

animal model of stroke = assay: Animal model of stroke (ischemia/reperfusion); assay type: in vivo, mice; settings: treated just prior to reperfusion
Procedure: For example, the RAGE fusion proteins of the present invention may also be used to treat stroke. […] In this model, the […] of a mouse is ligated and then reperfused to form an infarct. To assess the efficacy of RAGE fusion proteins to treat or prevent stroke, mice were treated with sRAGE or TTP-4000 or control immunoglobulin just prior to reperfusion. […] TTP-4000 was also compared to sRAGE in a disease relevant animal model of stroke. In this model, the […] of a mouse was ligated for 1 hour followed by 23 hours of reperfusion at which point the mice were sacrificed and the area of the infarct in the brain was assessed. […] After the nylon suture had been in place for 1 hour, the animal was re-anesthetized, rectal temperature was recorded and the suture was removed and the incision closed. Infarct volume was determined by anesthetizing the animals with an intraperitoneal injection of sodium pentobarbital (50 mg/kg) and then removing the brains. […] The infarct area in each section was determined with a computer-assisted image analysis system, consisting of a Power Macintosh computer equipped with a Quick Capture frame grabber card, Hitachi CCD camera mounted on a camera stand. […] The images were captured and the total area of infarct was determined over the sections. […] Summing the infarct volumes of the sections calculated the total infarct volume. […]

[2] = tested on: allogeneic rejection of transplanted islet cells; assay: Allogeneic islet transplantation in diabetic B6 mice; assay type: in vivo; settings: for day of graft loss for each animal: BALB/c islets in B6 mice; for day of graft loss, Mean: n 8
Procedure: C57BL/6J (6-8 week old) (B6) mice were made diabetic by a single intravenous injection of streptozotocin (STZ) (Sigma Chemical Co., St. Louis, Mo.) at 200 mg/kg.
BALB/cJ (6-8 week old) (BALB) mice served as donors for islet transplantation, thus providing an allo-mismatch for islet transplants.
Mice (BALB/c) were anesthetized with ketamine HCl/xylazine HCl solution (Sigma, St. Louis Mo.). After intraductal injection of 3 ml of cold Hank's balanced salt solution (HBSS, Gibco, Grand Island N.Y.) containing 1.5 mg/ml of collagenase P (Roche Diagnostics, Branchburg, N.J.), pancreata were surgically procured and digested at 37° C. for 20 mins. Islets were washed with HBSS and purified by discontinuous gradient centrifugation using Polysucrose 400 (Cellgro, Herndon Va.) having four different densities (26%, 23%, 20%, and 11%). The tissue fragments at the interface of the 20% and 23% layers were collected, washed and resuspended in HBSS. Individual islets, free of attached acinar, vascular and ductal tissues were handpicked under an inverted microscope, yielding highly purified islets for transplantation.
Streptozotocin-induced diabetic C57BL/6 (B6) mice received islet grafts within 2 days of the diagnosis of diabetes. BALB/cJ (6-8 week old) (BALB) mice served as donors for allogeneic islet transplantation. For transplantation, 500-600 freshly isolated islets (i.e., approximately 550 islet equivalents) from donor mice were picked up with an infusion set and transplanted into the subcapular space of the right kidney of a recipient.
Test compounds were administered as soon as the islets were transplanted; administration continued for about 60 days, depending upon how the control animal was faring.
Islet graft function was monitored by serial blood glucose measurements daily for the first 2 weeks after islet transplantation, followed by every other day thereafter. Reversal of diabetes was defined as blood a glucose level of less than 200 mg/dl on two consecutive measurements. Graft loss was determined when blood glucose exceeded 250 mg/dl on two consecutive measurements.

[3] = Solubility of TTP-4000 in formulation buffers; assay type: physicochemical; settings: citrate versus histidine buffers
Procedure: Formulations containing sodium acetate, sodium citrate, sodium phosphate, sodium succinate, histidine, and sodium chloride were tested along with sucrose and mannitol. Various pH's between 5.5 and 7.0 were also evaluated.
Based on the solubility of the RAGE fusion protein in formulations containing one or more of sodium citrate, histidine, sucrose, mannitol, and Tween 80 at a pH of 7.0 or less, formulations containing one or more of these buffers, lyoprotectants, or surfactant were selected for further study.

B1: TTP-4000: four domain RAGE fusion protein: human RAGE N-terminal sequence (to position 251) linked to human IgG Fc (γ1) without hinge; SEQ ID NO: 34/56 (protein)
chain: QNITARIGEPLVLKCKGAPKKPPQRLEWKLNTGRTEAWKVLSPQGGGPWDSVARVLPNGSLFLPAVGIQDEGIFRCQAMNRNGKETKSNYRVRVYQIPGKPEIVDSASELTAGVPNKVGTCVSEGSYPAGTLSWHLDGKPLVPNEKGVSVKEQTRRHPETGLFTLQSELMVTPARGGDPRPTFSCSFSPGLPRHRALRTAPIQPRVWEPVPLEEVQLVVEPEGGAVAPPSVFLFPPKPKDTLMISRTPEVTCVVVDVSHEDPEVKFNWYVDGVEVHNAKTKPREEQYNSTYRVVSVLTVLHQDWLNGKEYKCKVSNKALPAPIEKTISKAKGQPREPQVYTLPPSRDELTKNQVSLTCLVKGFYPSDIAVEWESNGQPENNYKTTPPVLDSDGSFFLYSKLTVDKSRWQQGNVFSCSVMHEALHNHYTQKSLSLSPGK
[1]
  inhibition of HMGB1-induced TNF-α production: to a greater extent than does the anti-RAGE antibody
Fc receptor; conditions where human IgG stimulation of TNF-α release is detected
  stimulation of TNF-α release from cells: does not stimulate TNF-α release
Fc receptor; well precoated with 10 ug/well heat aggregated protein, THP-1 cells, 24 hours
  TNF generated: less than 2 ng/well
Animal model of stroke
  reduction in infarct volume compared to sRAGE: significantly greater reduction in infarct volume
[2]; 300 ug + 30 ug qod ip
  day of graft loss for each animal: 12 day (2×) and 11 day (2×) and 8 day (2×) and 13 day and 14 day
  day of graft loss, Mean: 11.125 days
[2]; 300 ug LD + 100 ug qod ip
  day of graft loss for each animal: 13 day (2×) and 12 day and 16 day (2×) and 15 day and 14 day (2×)
  day of graft loss, Mean: 14.125 days
[2]; Groups 1 and 3 versus untreated, PBS or human IgG1
  time before detection of graft failure, in words: increase in the time before detection of graft failure
[3]
  solubility in formulations, in words: may be more soluble in formulations containing histidine
